From patent US20110195072A1, “NON-NEUROENDOCRINE CANCER THERAPY” (priority 2006, published 2011) come the findings set out here.

Common to all, as to format: cell-based, human
One data set relates to Ret. The experiment in a line: Ret expression after siRNA transfection (Western blot and PCR) in MCF7 cells. The following applies: 20 nM siRNA. How it is done:
MCF7 cells are seeded at a density of 10^5 cells/well in 6 well plates. 24 hours after seeding, cells are transfected with control lacZ siRNA or Ret siRNA (Qiagen, 96165/96166) at a final siRNA concentration of 20 nM using HiPerFect transfection reagent (Qiagen, 301705). siRNA targeting sequences are as following:
Ret9 and Ret51 protein expression is analyzed 72 hours post siRNA transfection using polyclonal antibodies from Santa Cruz (C-19 against Ret9: sc-167; C-20 against Ret51: sc-1290) and direct Western Blot analysis with 50 μg of total protein extract (FIG. 2 Panel A). […] As a control, total RNA is extracted in a parallel experiment (RNeasy, 74104, Qiagen). First-strand cDNA is synthesized using SuperScript III First-Strand Synthesis System for RT-PCR (Invitrogen, 18080-051), using random hexamer primers.

The subject of data set [1] is MCF7 cells. Briefly: GDNF-induced Erk (MAPK) activation after siRNA transfection, immunoblot. The following applies: 72 hrs after siRNA transfection, 10 ng/ml GDNF for 10 min. How it is done:
(§1) MCF7 and T47D cells are seeded at 5×10^5/4 ml in 6 cm plates for 24 hrs. Cells are transfected with siRNAs targeting Ret (siRet1: […] siRet2: […]; Qiagen) or a control siRNA targeting LacZ ([…]) using Oligofectamine (12252-011, Invitrogen) and HiPerFect, respectively. After 72 hrs, cells are stimulated with 10 ng/ml GDNF alone (for 10 min in MCF7) or together with 100 ng/ml GFRα1 (for 30 min in T47D; rhGFRα1/Fc chimera 714-GR, R&D Systems), extracted and resolved by 12.5% SDS-PAGE electrophoresis and immunoblot analysis is performed using rabbit polyclonal antibodies against Erk (MAPK) and phospho-Erk (p-MAPK: see FIG. 7).
(In general: A western blot detects proteins with antibodies after separation by electrophoresis.)

The subject of data set [2] is T47D cells. Described as above. The following applies: 72 hrs after siRNA transfection, 10 ng/ml GDNF with 100 ng/ml GFRα1 for 30 min. How it is done:
as §1

Data set [3] concerns MCF7 cells. The experiment in a line: Anchorage-independent cell proliferation (polyheme assay). The following applies: 10 ng/ml GDNF alone for 4 days, polyheme-coated plates. How it is done: (§2) MCF7 and T47D cells are seeded at 5×10^5/4 ml in 6 cm plates coated with polyheme (P3932, Sigma) to prevent adhesion of the cells to the substratum. Cells are treated with 10 ng/ml GDNF alone (MCF7) or together with 100 ng/ml GFRα1 (T47D) for 4 days. Cells were collected, trypsinized and counted (Vi-cell XR, Beckman Coulter).
(§3) MCF7 and T47D cells are seeded at 10^6/4 ml in 6 cm plates coated with polyheme. Cells are pretreated with 100 nM of a Ret inhibitor [repeat name of compound from earlier] or the vehicle DMSO for 1 hr, and then treated with 10 ng/ml GDNF alone (MCF7) or together with 100 ng/ml GFRα1 (T47D) for 4 days. Cells are collected, trypsinized and counted (Vi-cell XR, Beckman Coulter).

In data set [4] the test system is T47D cells. The data set is described as above. The following applies: 10 ng/ml GDNF with 100 ng/ml GFRα1 for 4 days, polyheme-coated plates. How it is done:
as §2, §3

Data set [5] has as its system MCF7 cells. The experiment in a line: GDNF stimulation of Erk and JNK/SAPK phosphorylation, immunoblot. The following applies: 100 ng/ml GDNF, 5 min to 8 hrs. How it is done:
(§4) MCF7 and T47D cells are seeded at 3×10^6/15 ml and 3×10^6/10 ml in 15 and 10 cm plates for 2 days respectively. Cells are serum deprived (0.1% FCS) for 16 to 24 hrs or refed with normal medium. Cells are stimulated with 100 ng/ml GDNF (450-10, PeProTech) for 5, 10, 20, or 30 min 1, 4 or 8 hrs. Cell extracts are resolved by 10 or 12.5% SDS-PAGE electrophoresis and immunoblot analysis is performed using rabbit polyclonal antibodies raised against Erk (MAPK: 9102, Cell Signaling Technology) phospho-Erk (P-MAPK: […]; 9101) JNK/SAPK (9251) and phospho-JNK/phospho-SAP (Thr183/Tyr185; 9252) (see FIG. 6).

Data set [6] concerns T47D cells. The description is as above. The following applies: 100 ng/ml GDNF, 5 min to 8 hrs. The procedure:
as §4

The test system of data set [7] is MCF7 cells. Briefly: Soft agar colony assay (anchorage-independent proliferation). The following applies: 10 or 100 ng/ml GDNF alone, every week for 4 weeks. How it is done:
(§5) MCF7 and T47D cells are treated with 10 or 100 ng/ml GDNF alone (MCF7) or together with 100 ng/ml GFRα1 (T47D) for 10 to 20 min in suspension and subsequently seeded at 10^5/2 ml in 6-well plates in a soft agar layer. Cells are treated again with GDNF alone or together with GFRα1 every week for 4 weeks in fresh medium. Colonies are stained with nitrotetrazolium blue and counted (Artek counter 880, Dynatech Laboratories).

Data set [8] concerns T47D cells. The data set is described as above. The following applies: 10 or 100 ng/ml GDNF with 100 ng/ml GFRα1, every week for 4 weeks. How it is done:
as §5

In the case of “siRet1: siRNA targeting Ret, targeting sequence CCGCTGGTGGACTGTAATAAT (Qiagen) (target sequence only, siRNA duplex strands not listed, further chemistry not given here)”, the “Ret9 protein expression (Western blot signal)” value with Ret (72 hours post transfection, antibody C-19) is “reduction in signal”. Moreover, the “Ret51 protein expression (Western blot signal)” value in the data set with Ret (72 hours post transfection, antibody C-20) is on record as “reduction in signal”. Besides, in the data set with Ret (parallel experiment), the “Ret mRNA expression (PCR)” value is “reduction in Ret mRNA”. Moreover, the “GDNF-induced activation of Erk (MAPK)” value with MCF7 cells [1] and in the data set with T47D cells [2] was “prevents” each time.

As to “siRet2: siRNA targeting Ret, TAGGCTGGTTCTCAACCGGAA (Qiagen) (target sequence only, siRNA duplex strands not listed, further chemistry not given here)”, the “GDNF-induced activation of Erk (MAPK)” value in the data set with MCF7 cells [1] and in the data set with T47D cells [2] was “prevents” each time.

B1: GDNF: glial-derived neurotrophic factor, specific ligand of Ret (450-10, PeProTech) (protein, UniProt P39905 78-211, looked up)
Glial cell line-derived …: SPDKQMAVLPRRERNRQAAAANPENSRGKGRRGQRGKNRGCVLTAIHLNVTDLGLGYETKEELIFRYCSGSCDAAETTYDKILKNLSRNRRLVSDKVGQACCRPIAFDDDLSFLDDNLVYHILRKHSAKRCGCI
modifications: recombinant, PeProTech
On to B1, for which the “anchorage-independent cell proliferation (cell count)” value in the data set on MCF7 cells [3] and with T47D cells [4] was “significantly enhances” each time. Moreover, the “phosphorylation of Erk” value in the data set on MCF7 cells [5] and in the data set on T47D cells [6] was “increased phosphorylation” in each case. Moreover, the “phosphorylation of JNK/SAPK” value in the data set on MCF7 cells [5] and with T47D cells [6] was “increased phosphorylation” each time. Moreover, the “number of colonies in soft agar” value in the data set on MCF7 cells [7] and in the data set with T47D cells [8] was “significantly increased the number of colonies in a concentration-dependent manner” throughout.
